{
  "source": "paper PMC12421828",
  "data": [
    {"biological_target": "FLAG-14-3-3ε (pCAGG-FLAG 14-3-3ε of Figure 5, isoform not told)", "test": "co-immunoprecipitation (anti-FLAG IP), immunoblot band quantification", "details": "BSR cells co-transfected; immunoprecipitation at 24 h post-transfection; parent: est. 0.76; read off a plot", "values": [
      {"substance": "HA2B* expressed from pCAGG-HA2B* S17E", "response (Elution / Input)": 1.7},
      {"substance": "HA2B* expressed from pCAGG-HA2B* S19E", "response (Elution / Input)": 0.76},
      {"substance": "HA2B* expressed from pCAGG-HA2B* S17D", "response (Elution / Input)": 1.4},
      {"substance": "HA2B* expressed from pCAGG-HA2B* S19A", "response (Elution / Input)": 1.1},
      {"substance": "HA2B* expressed from pCAGG-HA2B* S19D", "response (Elution / Input)": 1.9},
      {"substance": "HA2B* expressed from pCAGG-HA2B* S17A", "response (Elution / Input)": 1.5}
    ]}
  ]
}
